In US12053511B2, “Cystatin C and Cystatin 9 to treat gut inflammation caused by thermal injury” (priority 2016, dated 2024):
Values joined by “and” are separate entries in the source; they are usually repeats but may differ in a detail not shown here. Equal values may be shown once.

B1: rCST9: human recombinant cystatin 9, cysteine proteinase inhibitor; purchased from American Research Products, Inc. (protein, UniProt Q5W186 29-159, looked up)
Cystatin-9: WCSEEEMGGNNKIVQDPMFLATVEFALNTFNVQSKEEHAYRLLRVLSSWREDSMDRKWRGKMVFSMNLQLRQTVCRKFEDDIDNCPFQESLELNNVRQGISFPQVHSCGCCMGCGVGTGAADKAIPRDKGK
B2: rCSTC: human recombinant cystatin C (CST3), cysteine proteinase inhibitor; purchased from R&D Systems (protein, UniProt P01034 27-146, looked up)
Cystatin-C: SSPGKPPRLVGGPMDASVEEEGVRRALDFAVGEYNKASNDMYHSRALQVVRARKQIVAGVNYFLDVELGRTTCTKTQPNLDNCPFHDQPHLKRKAFCSFQIYAVPWQGTMTLSKSTCQDA

Assays:
IL-8 = IL-8 secretion from intestinal epithelial cells exposed to E. coli 083:H1 and/or flagellin; assay type: cell-based; conditions: after exposure to enteric E. coli 083:H1 and/or flagellin
Source text: (§1) It is known that intestinal leakage of intestinal bacteria and their product occurs following burn injury likely contributing to systemic infection and sepsis.

NDM-1 Kp = experiment: LD90 NDM-1 Kp pneumonia murine model, survival; assay type: in vivo, Balb/c mice; conditions: for increased survival of Kp infected mice: single i.p. dose, 50 pg/mouse
Source text: To establish the optimal CST route, timing, and dosage regimen against MDR NDM-1 Kp-induced pneumonia, Balb/c mice (n=10-20 mice/gp) were infected with an i.n. LD90 and treated at various times and doses as depicted in Table 1. Doses included i.n. and/or i.p. single rCST9, rCSTC or a combination of rCST9 and rCSTC. Mice that were infected with NDM-1 Kp but were not treated served as controls. rCST treatments by routes, doses, or as a combined therapy were studied to select an optimal regimen.
Evaluate optimal timing and dosage of rCST-9 and/or PEG-rCST9 administration post-infection. Balb/c mice (n=10-20 mice/gp) were intranasally (i.n.) infected with approximately 1.82×10^8 CFU/mouse of Kp 2146 (as established hereinabove) then treated i.n. or i.p. with rCST9, human recombinant cystatin C (rCSTC) or a combination of rCST9 and rCSTC as depicted in Table 1. Kp infected alone served as controls. […] Therefore, as a comparative control to rCST9, the inventors evaluated the effectiveness of rCSTC against pneumonia using the same doses of 50 and/or 500 pg/mouse.
The potential for rCST9/rCSTC treatment to extend the period before successful antibiotic intervention was initiated was determined. For these evaluations, suboptimal doses of colistin were used to determine the extent of protection afforded by rCSTs as well as to minimize side effects/toxicity caused by this antibiotic (n=10 mice/gp). Doses, timing, and route of colistin were chosen based on efficacy studies of colistin in a mouse model of severe, established MDR pneumonia or a very low dose of colistin then adjusted to suboptimal levels for this study. LD90 NDM-1 Kp-challenged mice were treated with the rCST9/rCSTC 3 d i.p. treatment and then given 2 doses of colistin at 20 mg/kg/day or 1.25 mg/kg/day on day 4 and 5 PI.
Mouse model of pneumonia and CST treatments. Eight-week old female Balb/c mice weighing between 21 and 24 grams (Jackson Laboratories) were housed in an Association for Assessment and Accreditation for Laboratory Animal Care (AAALAC)-approved housing facility and permitted to adjust to their environment for 7 d prior to procedures, receiving free access to food and water throughout the study. All procedures were approved by the University of Texas Medical Branch IACUC and performed humanely with minimal suffering. […] One hour PI, mice were administered an i.n. dose of rCST9/rCSTC (50 pg of each) and then, this group of mice was given an i.p. injection of rCST9/rCSTC (500 pg of each) 3 d PI. A parallel group of infected mice received only a single i.p. dose of rCST9/rCSTC, PEG-rCST9/rCSTC (500 pg of each), or PEG-rCST9 (500 pg) alone 3 d PI. NDM-1-Kp infected mice alone or uninfected mice served as controls. Survival was observed up to 15 days post treatment. Additional groups (n=4 mice/group) of infected and CST-treated mice were euthanized at selected time points (24 h, 72 h, 5 and/or 10 d PI) to harvest lungs. Additional groups were treated with i.n. rCSTs (50 pg of each) as described above but they were euthanized at 30 min, 1 h and 3 h to collect lungs for the quantification of lipid peroxidase by-product, known as malondialdehyde (MDA), as described below.
Additional groups of mice (n=15 mice/group) were treated with the optimal CST treatment regimens of an i.n. dose of rCST9/rCSTC (50 pg of each), followed by an i.p. injection of rCST9/rCSTC (500 pg of each) 3 d PI or the single i.p. dose of rCST9/rCSTC (500 pg of each). At 4 d PI, mice were given 2 separate i.p. injections of colistin (JHP Pharmaceuticals, LLC; colistimethate sodium; 20 mg/kg/mouse or 1.25 mg/kg/day) 8 h apart for 2 d.

[1] = test system: Klebsellia pneumoniae (isolate from burn patient lung); experiment: Viability and virulence of pathogenic bacterial strains; assay type: cell-based; conditions: 50 pg dose
[2] = test system: Salmonella typhimurium (ATCC); experiment: as above; assay type: cell-based; conditions: 50 pg dose
MIP-1 and IL-8 = experiment: Systemic cytokines in gavaged mice given 30% full-thickness burn; assay type: in vivo, Balb/c mice; conditions: gavage 50 pg/mouse, then 30% full-thickness burn; specifically in the lungs
Source text: as §1

[3] = test system: Burkholderia thialandensis (ATCC); experiment: Viability and virulence of pathogenic bacterial strains; assay type: cell-based; conditions: 50 pg dose
E. coli O157:H7 (ATCC) = experiment: as above; assay type: cell-based; conditions: 50 pg dose
[4] = 50 pg per mouse, i.n., 1 h pre-infection
[5] = 50 pg per mouse, i.n., 3 d post-infection
[6] = 50 pg per mouse, i.p. then i.p., 1 h and 3 d post-infection
[7] = 500 pg per mouse, i.n., 1 h and 3 d post-infection
[8] = 500 pg per mouse, i.n., 1 h pre-infection

Molecule	IL-8 secretion from intestinal epithelial cells (IL-8)	increased % survival of Kp LD90 mice (NDM-1 Kp; [4])	increased % survival of Kp LD90 mice (NDM-1 Kp; [5])	increased % survival of Kp LD90 mice (NDM-1 Kp; [6])	increased % survival of Kp LD90 mice (NDM-1 Kp; [7])	increased % survival of Kp LD90 mice (NDM-1 Kp; [8])	increased survival of Kp infected mice (NDM-1 Kp)	viability and virulence [1]	viability and virulence [2]	systemic MIP-1 and IL-8 secretion (MIP-1 and IL-8)	viability and virulence [3]	viability and virulence (E. coli O157:H7 (ATCC))
B1	decreased IL-8 secretion	increased survival and 10%	10%	5%	10%	10%	15%	retarded the viability and virulence	retarded the viability and virulence	decrease in systemic MIP-1 and IL-8 secretion	retarded the viability and virulence	retarded the viability and virulence
B2	decreased IL-8 secretion	increased survival and 20%	10%	5%	10%	10%	15%	–	–	decrease in systemic MIP-1 and IL-8 secretion	–	–
